Patent US20090317391A1 (Novartis, published 2009)

Target: T1, SEMA4D-V5 (expressed from pDESTSEMA4D-V5) (UniProt Q92854 22-862, limits assumed)
T1 construct: Control membrane protein co-transfected in 293T cells
T1 sequence (looked up): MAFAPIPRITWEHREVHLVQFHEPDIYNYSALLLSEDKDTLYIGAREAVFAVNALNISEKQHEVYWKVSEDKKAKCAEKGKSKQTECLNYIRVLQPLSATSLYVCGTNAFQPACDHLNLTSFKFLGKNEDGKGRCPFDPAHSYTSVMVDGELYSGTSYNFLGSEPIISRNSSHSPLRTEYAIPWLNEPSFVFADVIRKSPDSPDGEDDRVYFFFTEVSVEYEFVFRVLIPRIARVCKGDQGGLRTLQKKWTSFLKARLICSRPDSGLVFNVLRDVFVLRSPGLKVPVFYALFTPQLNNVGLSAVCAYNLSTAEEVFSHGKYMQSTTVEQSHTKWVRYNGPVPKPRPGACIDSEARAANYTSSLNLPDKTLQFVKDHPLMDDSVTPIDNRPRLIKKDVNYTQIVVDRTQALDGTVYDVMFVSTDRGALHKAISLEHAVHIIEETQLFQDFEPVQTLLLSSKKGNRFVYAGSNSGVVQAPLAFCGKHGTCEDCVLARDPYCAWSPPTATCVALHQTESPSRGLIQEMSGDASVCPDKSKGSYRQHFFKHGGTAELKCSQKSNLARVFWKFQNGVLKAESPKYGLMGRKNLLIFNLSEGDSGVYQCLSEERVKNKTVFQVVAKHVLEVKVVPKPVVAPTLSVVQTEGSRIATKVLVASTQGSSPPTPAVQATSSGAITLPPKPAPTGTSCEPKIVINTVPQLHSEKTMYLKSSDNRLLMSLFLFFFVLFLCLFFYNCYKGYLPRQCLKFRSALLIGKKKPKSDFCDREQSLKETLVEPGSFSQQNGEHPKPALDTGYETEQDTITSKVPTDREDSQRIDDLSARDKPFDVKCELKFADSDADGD
Experiment: co-immunoprecipitation (anti-HA or anti-V5) and western blot from lysates of co-transfected 293T cells
Method: Cells were harvested 72-hours later by scraping in 1 ml PBS. The pellets were lyzed on ice for 60 mins. in 500 ul lysis buffer: 50 mM Tris-HCl; pH7.5, 150 mM NaCl, 1 mM EDTA, 1% NP40, 0.25% Deoxycholate, 50 mMNaF, 20 mM Na3OV4 and protease inhibitors. 1 mM PMSF (0.3M stock solution in DMSO) was added to the lysis buffer before use. DNA was sheared with a needle. Lysates were then spun down for 10 mins. at 14,000 rpm. 200 ul cell lysates were incubated, overnight at 4° C. with gentle rocking, with lug of either rabbit polyclonal antibody to HA or V5 epitope tag (abcam; ab9110-100 and ab9116-100, respectively).
The next morning, a suspension protein A/G (50:50) agarose beads was washed twice in PBS then in lysis buffer. The beads (50% slurry) were incubated on ice in the lysis buffer for one hour. 30 ul of the proteinA/G suspension were added to the lysates and the mixture incubated for 4 hours at 4° C. with gentle rocking. Beads were then washed 3 times with 1 ml lysis buffer. Beads were resuspended in 30 μl sample buffer.
After protein transfer to membrane blots. Membranes were blocked over-night in PBST-5% Milk. The next day blots of the immunoprecipitation with V5 antibody were incubated with HA hybridoma supernatant (dilution 1:1000) for 1 hour whereas blots of the immunoprecipitation with HA antibody were incubated with V5-HRP (dilution 1:5000)

B1: HA-tm-PTPε (expressed from pDisplayHA tm-PTPε-FL#9) (receptor, not shown: small tags and cut ends)
chain: LRGNETTADSNETTTTSGPPDPGASQPLLAWLLLPLLLLLLVLLLAAYFFRFRKQRKAVVSTSDKKMPNGILEEQEQQRVMLLSRSPSGPKKYFPIPVEHLEEEIRIRSADDCKQFREEFNSLPSGHIQGTFELANKEENREKNRYPNILPNDHSRVILSQLDGIPCSDYINASYIDGYKEKNKFIAAQGPKQETVNDFWRMVWEQKSATIVMLTNLKERKEEKCHQYWPDQGCWTYGNIRVCVEDCVVLVDYTIRKFCIQPQLPDGCKAPRLVSQLHFTSWPDFGVPFTPIGMLKFLKKVKTLNPVHAGPIVVHCSAGVGRTGTFIVIDAMMAMMHAEQKVDVFEFVSRIRNQRPQMVQTDMQYTFIYQALLEYYLYGDTELDVSSLEKHLQTMHGTTTHFDKIGLEEEFRKLTNVRIMKENMRTGNLPANMKKARVIQIIPYDFNRVILSMKRGQEYTDYINASFIDGYRQKDYFIATQGPLAHTVEDFWRMIWEWKSHTIVMLTEVQEREQDKCYQYWPTEGSVTHGEITIEIKNDTLSEAISIRDFLVTLNQPQARQEEQVRVVRQFHFHGWPEIGIPAEGKGMIDLIAAVQKQQQQTGNHPITVHCSAGAGRTGTFIALSNILERVKAEGLLDVFQAVKSLRLQRPHMVQTLEQYEFCYKVVQDFIDIFSDYANFK
notes: Transiently expressed in 293T cells and tested from cell lysates; The tag is placed N-terminal on the strength of the name
B1: no binding.
